In patent US20240174755A1 (published 2024):
One block for each binder: values may come before it.

Columns and labels:
[1] = molecular target: T1, human EGFR/HER1/ErbB1 Protein (His Tag, Sino Biological; Cat. Number 10001-H08H) (human, UniProt P00533 25-645); assay: direct ELISA, EGFR coated, streptavidin-HRP detection
T1 construct: Bought; construct not described; not shown: His tag
Protocol: (§1) 96-well maxisorp (Nunc) immunosorp plates were coated with 2 ug/ml of human PDGFRa (Sino Biological; Cat. Number; 10556-HCCH) or 2 ug/ml human EGFR/HER1/ErbB1 Protein (His Tag, Sino Biological; Cat. Number; 10001-H08H) in PBS, 100 ul per well, at 4C overnight. Wells were washed thrice in PBS. Unspecific binding sites were blocked in 4% BSA/PBS for 1 h at RT, followed by washing thrice in PBS. VHH-biotin conjugates, diluted at 0.01-100 nM in 1% BSA/PBS, were incubated for 1 h at RT, followed by washing thrice in PBS. Streptavidin-horseradish peroxidase (HRP; GeneTex) was diluted 1:40,000 in 1% BSA/PBS and was incubated for 1 h at RT. PDGFRa or EGFR was detected with positive control antibodies rabbit anti-human PDGFRa/CD140a Antibody, (Cat no: 10556-R065) or rabbit anti-human EGFR/HER1/ErbB1 (Catalog no: 10001-R021, both from Sino Biological) diluted in 1% BSA/PBS at 1:5000 and were incubated for 1 h at RT, shaking. Secondary HRP-conjugated anti-rabbit-antibody was diluted at 1:5000 in 1% BSA/PBS and was incubated for 1 h at RT, shaking. Wells were washed 6 times in PBS. o-Phenylenediamine dihydrochloride (OPD; Sigma-Aldrich) was used as HRP substrate at 0.4 mg/ml in 0.05 M phosphate-citrate buffer pH 5.0 with 0.03% sodium perborate (Sigma-Aldrich), prepared according to the manufacturer's recommendations, and was used in volume of 100 ul per well. Reaction was allowed to proceed for 30 min at RT in dark, and was stopped by adding 50 ul of 1.5 M HCl. Optical density was measured at 492 nm on a Synergy H1 microplate reader (BioTek).

[2] = molecular target: T2, human PDGFRa (Sino Biological; Cat. Number 10556-HCCH) (human, UniProt P16234 24-524, limits assumed); assay: direct ELISA, PDGFRa coated, streptavidin-HRP detection
T2 construct: Bought; construct not described; also called PDGFRα
Protocol: as §1
VHH-biotin binding to human PDGFRa was assessed using an ELISA, where wells were coated with PDGFRa, and VHH-biotin binding was detected using streptavidin-HRP with OPD as a substrate.

[3] = molecular target: T3, mouse PDGFR β ECD (R&D Systems) (mouse, UniProt P05622 32-531); assay: biotin-streptavidin ELISA, mouse PDGFR β ECD coated at 4 ug/ml
T3 construct: extracellular domain; Bought; also called mECD; mouse ECD
T3 sequence (looked up): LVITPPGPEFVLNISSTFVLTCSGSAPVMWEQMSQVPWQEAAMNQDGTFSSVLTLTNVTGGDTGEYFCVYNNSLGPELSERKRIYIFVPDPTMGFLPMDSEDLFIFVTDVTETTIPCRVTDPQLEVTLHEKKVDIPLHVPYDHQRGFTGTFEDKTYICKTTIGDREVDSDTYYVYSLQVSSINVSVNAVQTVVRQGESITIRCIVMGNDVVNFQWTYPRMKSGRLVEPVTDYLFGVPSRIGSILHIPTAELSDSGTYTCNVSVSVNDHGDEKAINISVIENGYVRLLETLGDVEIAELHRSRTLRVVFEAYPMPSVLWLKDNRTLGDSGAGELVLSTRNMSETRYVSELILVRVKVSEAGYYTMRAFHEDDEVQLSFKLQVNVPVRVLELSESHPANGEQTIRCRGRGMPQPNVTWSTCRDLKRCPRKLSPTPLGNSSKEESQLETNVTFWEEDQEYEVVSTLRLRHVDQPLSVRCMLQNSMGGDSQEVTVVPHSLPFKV
Protocol: In this example, the binding affinity of biotin-conjugated VHHs 1B5 and 1E12 to either human or mouse PDGFR β extra-cellular domain (ECD) was assessed using biotin-streptavidin ELISA. Human or mouse PDGFR β ECD was coated on immunoassay wells, where 1B5-biotin or 1E12-biotin were captured. Binding was detected using streptavidin-HRP and ODP as a substrate.
ELISA Method 96-well maxisorp (Nunc) immunosorp plates were coated with 1 ug/ml or 2 ug/ml of PDGFR β extracellular domain (ECD; Fc- and His-tagged, Sino Biological) or mouse PDGFR β ECD (R&D Systems) 4 ug/ml in PBS, 100 ul per well, at 4C overnight. Wells were washed thrice in PBS. Unspecific binding sites were blocked in 4% BSA/PBS for 1h at RT, followed by washing thrice in PBS. VHHs 1B5-biotin or 1E12-biotin, diluted at 0.01-100 nM in 1% BSA/PBS, was allowed to bind on ECD for 1 h at RT, followed by washing thrice in PBS. Streptavidin-horseradish peroxidase (HRP; GeneTex) was diluted 1:10,000 in 1% BSA/PBS and was incubated for 1 h at RT. […] Optical density was measured at 492 nm on a Synergy H1 microplate reader (BioTek).

[4] = molecular target: T4, human PDGFR β extra-cellular domain (ECD), Fc- and His-tagged (Sino Biological) (human, UniProt P09619 33-532); assay: SPR (Biacore 3000), Fc/His PDGFR β ECD captured on protein A; only 1E12-Flag-His was run in SPR
T4 construct: extracellular domain; Bought; also called hECD; Fc/His-tagged PDGFR β ECD; not shown: Fc tag and His tag
Protocol: (§2) FIG. 11: VHH (flag-his-tagged, or conjugated with HL488, NOTA or 800 CW) binding to human extracellular domain (ECD) of PDGFR β assessed with surface plasmon resonance (SPR). Fc/His-tagged PDGFR β ECD was bound to protein A chemically conjugated to CM4 sensor chip. Binding of VHHs was tested at 0.39-50 nM. Shown are representative SPR Biacore traces of tagged or conjugated 1B5 VHH (panels A); tagged or conjugated 1D4 VHH (panels B); tagged or conjugated 1H4 VHH (panels C) or tagged VHH 1E12 (panel D).
(§3) SPR analysis was performed using the Biacore 3000 instrument (GE Healthcare). Protein A was chemically bound to a CM4 sensor chip (GE Healthcare) according to the primary amine procedure to approximately 2100 response units (RU). Fc/His-tagged PDGFR β ECD at 0.4-2.07 ng/ul was bound to protein A at flow rate of 35 ul/min. Run buffer HBS-EP (GE Healthcare; 0.01 M HEPES pH 7.4, 0.15 M NaCl, 3 mM EDTA, 0.005% v/v Surfactant P20) was used for VHHs 1D4, 1H4 and 1E12 conjugates at 50, 25, 12.5, 6.25, 3.13, 1.56, 0.78 and 0.39 nM. For 1B5 conjugates, HBS-EP+0.5 M NaSCN was as run buffer to reduce non-specific binding to a control path without PDGFR β ECD. A flow rate 70 ul/min was used for VHH injections in volumes of 150 ul. Regeneration of the sensor CM4 chip was performed by three successive injections of c. 30 s 10 mM glycine-HCl pH 2, 10 mM glycine-HCl pH 1.5, and 0.5 M NaSCN/10 mM NaOH.

[5] = molecular target: human PDGFR β ECD (U-protein Express, Utrecht) (human) (UniProt P09619); assay: dose response ELISA on immobilized PDGFR β
[6] = molecular target: T4, human PDGFR β extra-cellular domain …; assay: SPR (Biacore 3000), Fc/His PDGFR β ECD captured on protein A; 1D4 construct not stated
Protocol: as §2, §3

[7] = molecular target: human PDGFR β ECD (U-protein Express, Utrecht) (human) (UniProt P09619); assay: dose response ELISA, PDGFR β ECD coated at 2 µg/ml, rabbit anti-VHH detection

binding result [1]: no binding (tested: 0.01-100 nM) | binding result [2]: no binding (tested: 0.01-100 nM) | EC50 [3]: 1.1 nM
B1: 1E12-biotin (VHH)
VHH: EVQLVESGGGLVQAGGSLRLSCAPSERSFSAYLMGWFRQAQGKEREFVAAWRWPTSTTYYSDSGKGRFTITGDNAKNTVELEMNSLKPEDTAVYYCAARRGILYGPATSPTAYDFWGQGTQVTVSS
modifications: Biotin-maleimide on the C-terminal cysteine of the C-Direct tag
notes: ID NO: 31 or 32; also called VHH 1E12-biotin; biotin-conjugated 1E12; not shown: C-terminal C-Direct tag with a free cysteine and an EPEA purification tag (vector pYQVQ11)

Kd [4]: ~100 nM
B2: 1E12-Flag-His (VHH)
VHH: B1 VHH
notes: Made in E. coli; ID NO: 31 or 32 (N-terminal residue differs); also called VHH 1E12 (flag-his-tagged); tagged VHH 1E12; not shown: C-terminal FLAG-His tag from vector pMEK222

apparent binding affinity [5]: 0.5 nM | Kd [6]: ~0.02 nM | apparent affinity [7]: < 1 nM
B3: QPD-1D4 (VHH)
VHH: EVQLVESGGGLVQAGDSLRLSCAVSGRAQSRDVVGWFRQAPGKEREFLALVTRSYSTYYGASVKGRFTISRDNAKNTVHLEMNSLKPEDTGVYYCAADQGFCSGSGCYDWRTFHVWGQGTQVTVSS
notes: Purified, unconjugated VHH; also called VHH 1D4
